Assay results from US20180222956A1.
Like-named read-outs stand apart in the source and are kept apart here.

Tests used:
Test in all cases: cell-based or functional assay
Human TGFβ1 (human) [1] = target: Human TGFβ1 (human) (UniProt P01137)
Human TGFβ3 (human) [2] = target: Human TGFβ3 (human) (UniProt P10600)
Human TGFβ1 (human) [3] = target: Human TGFβ1 (human) (UniProt P01137); remark: listed apart in the source
Human TGFβ3 (human) [4] = target: Human TGFβ3 (human) (UniProt P10600); remark: listed apart in the source

Chain of Human TGFβ1 (human) (P01137 279-390 limits assumed): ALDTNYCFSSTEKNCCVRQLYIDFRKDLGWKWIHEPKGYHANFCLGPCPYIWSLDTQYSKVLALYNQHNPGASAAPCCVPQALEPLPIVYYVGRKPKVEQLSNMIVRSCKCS
Chain of hTβRIIshort(23-159)-hG2Fc (Fc fusion) (chain): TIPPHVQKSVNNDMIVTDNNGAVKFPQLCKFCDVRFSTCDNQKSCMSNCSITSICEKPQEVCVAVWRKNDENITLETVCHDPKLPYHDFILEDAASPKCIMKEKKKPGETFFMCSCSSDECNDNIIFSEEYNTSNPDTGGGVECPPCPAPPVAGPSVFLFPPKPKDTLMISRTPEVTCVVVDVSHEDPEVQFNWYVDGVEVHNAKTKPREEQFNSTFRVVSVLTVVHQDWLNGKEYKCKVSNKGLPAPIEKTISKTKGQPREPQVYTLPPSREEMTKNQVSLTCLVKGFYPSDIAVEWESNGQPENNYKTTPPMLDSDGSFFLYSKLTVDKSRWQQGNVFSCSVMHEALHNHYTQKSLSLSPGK
Chain of Human TGFβ3 (human) (P10600 301-412 limits assumed): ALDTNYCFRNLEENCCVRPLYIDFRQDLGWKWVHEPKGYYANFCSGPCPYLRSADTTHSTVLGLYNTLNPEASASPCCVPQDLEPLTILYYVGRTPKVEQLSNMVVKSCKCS
Chain of hTβRIIshort(29-159)-hG2Fc (Fc fusion) (chain): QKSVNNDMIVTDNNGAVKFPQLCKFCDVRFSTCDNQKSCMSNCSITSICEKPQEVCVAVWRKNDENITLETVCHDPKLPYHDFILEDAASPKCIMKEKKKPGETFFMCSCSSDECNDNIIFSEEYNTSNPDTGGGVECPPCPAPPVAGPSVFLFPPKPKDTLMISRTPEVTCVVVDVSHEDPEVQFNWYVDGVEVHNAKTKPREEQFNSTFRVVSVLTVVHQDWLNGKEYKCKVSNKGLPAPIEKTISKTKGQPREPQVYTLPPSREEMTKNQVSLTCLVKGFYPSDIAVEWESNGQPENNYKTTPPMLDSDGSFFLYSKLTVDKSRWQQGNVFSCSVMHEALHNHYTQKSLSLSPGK
Chain of hTβRIIshort(23-153)-hG2Fc (Fc fusion) (chain): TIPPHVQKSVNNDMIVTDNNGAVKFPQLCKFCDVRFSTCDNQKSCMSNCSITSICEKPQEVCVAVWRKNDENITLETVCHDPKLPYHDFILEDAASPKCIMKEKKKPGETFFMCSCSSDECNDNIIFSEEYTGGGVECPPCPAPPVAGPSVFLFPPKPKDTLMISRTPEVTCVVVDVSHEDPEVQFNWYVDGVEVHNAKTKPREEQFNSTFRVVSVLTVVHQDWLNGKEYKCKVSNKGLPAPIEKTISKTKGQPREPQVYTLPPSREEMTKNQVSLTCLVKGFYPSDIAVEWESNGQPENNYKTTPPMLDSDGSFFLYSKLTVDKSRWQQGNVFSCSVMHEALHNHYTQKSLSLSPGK
Chain of hTβRIIshort(35-159)-hG2Fc (Fc fusion) (chain): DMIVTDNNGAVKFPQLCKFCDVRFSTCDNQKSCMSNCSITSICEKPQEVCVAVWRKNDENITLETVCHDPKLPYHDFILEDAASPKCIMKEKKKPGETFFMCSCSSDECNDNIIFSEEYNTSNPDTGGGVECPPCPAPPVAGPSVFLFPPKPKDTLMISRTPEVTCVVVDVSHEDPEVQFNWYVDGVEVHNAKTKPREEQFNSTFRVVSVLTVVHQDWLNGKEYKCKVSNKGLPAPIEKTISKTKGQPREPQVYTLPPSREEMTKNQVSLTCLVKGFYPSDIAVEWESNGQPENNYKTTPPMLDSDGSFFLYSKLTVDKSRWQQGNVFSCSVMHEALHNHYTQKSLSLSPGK

IC50 (nM), A549 CAGA12 reporter gene assay, hTGFβ1 (640 pg/ml) (Human TGFβ1 (human) [1]) | IC50 (nM), A549 CAGA12 reporter gene assay, hTGFβ3 (270 pg/ml) (Human TGFβ3 (human) [2]) | IC50 (nM), A549 CAGA12 reporter gene assay, hTGFβ1 (640 pg/ml) (Human TGFβ1 (human) [3]) | IC50 (nM), A549 CAGA12 reporter gene assay, hTGFβ3 (270 pg/ml) (Human TGFβ3 (human) [4]) | Substance
> 73.6 nM | – | – | – | hTβRIIshort(23-159/D110K)-hG2Fc (Fc fusion)
17.7 nM | – | – | – | hTβRIIshort(23-153/N70D)-hG2Fc (Fc fusion)

The next lines start with the substance.

Substance | IC50 (nM), A549 CAGA12 reporter gene assay, hTGFβ1 (640 pg/ml) (Human TGFβ1 (human) [1]) | IC50 (nM), A549 CAGA12 reporter gene assay, hTGFβ3 (270 pg/ml) (Human TGFβ3 (human) [2]) | IC50 (nM), A549 CAGA12 reporter gene assay, hTGFβ1 (640 pg/ml) (Human TGFβ1 (human) [3]) | IC50 (nM), A549 CAGA12 reporter gene assay, hTGFβ3 (270 pg/ml) (Human TGFβ3 (human) [4])
hTβRIIshort(23-159)-hG2Fc (Fc fusion) | 1.73 nM | 0.14 nM | 0.52 nM | 0.37 nM
hTβRIIshort(23-153)-hG2Fc (Fc fusion) | 2.62 nM | 0.14 nM | – | –
hTβRIIshort(29-159)-hG2Fc (Fc fusion) | – | – | 2.05 nM | > 7.5 nM
hTβRIIshort(35-159)-hG2Fc (Fc fusion) | – | – | 2.51 nM | > 7.5 nM
